Assay results taken from paper PMC10200060 (2023).

T1: human recombinant HMGB1 protein (high-mobility group box-1) (human, UniProt P09429 1-215)
T1 chain: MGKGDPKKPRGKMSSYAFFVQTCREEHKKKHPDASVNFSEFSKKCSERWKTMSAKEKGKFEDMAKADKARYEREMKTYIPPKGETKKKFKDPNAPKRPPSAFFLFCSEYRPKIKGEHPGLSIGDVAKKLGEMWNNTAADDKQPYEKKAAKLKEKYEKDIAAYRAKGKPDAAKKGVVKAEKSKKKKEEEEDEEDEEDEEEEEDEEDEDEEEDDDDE


Molecular target: T1, human recombinant HMGB1 protein …
Experiment: SPR

Binder	koff [s⁻¹]
lactoferrin-glycyrrhizin conjugate Lf-GL (1:15) (other, glycyrrhizin (oxidised with sodium periodate) coupled to amines of Lf by Schiff-base reaction and reduction with NaBH3CN; ratio Lf:GL 1:15 as printed; modified residues not identified) GRRRSVQWCAVSQPEATKCFQWQRNMRKVRGPPVSCIKRDSPIQCIQAIAENRADAVTLDGGFIYEAGLAPYKLRPVAAEVYGTERQPRTHYYAVAVVKKGGSFQLNELQGLKSCHTGLRRTAGWNVPIGTLRPFLNWTGPPEPIEAAVARFFSASCVPGADKGQFPNLCRLCAGTGENKCAFSSQEPYFSYSGAFKCLRDGAGDVAFIRESTVFEDLSDEAERDEYELLCPDNTRKPVDKFKDCHLARVPSHAVVARSVNGKEDAIWNLLRQAQEKFGKDKSPKFQLFGSPSGQKDLLFKDSAIGFSRVPPRIDSGLYLGSGYFTAIQNLRKSEEEVAARRARVVWCAVGEQELRKCNQWSGLSEGSVTCSSASTTEDCIALVLKGEADAMSLDGGYVYTAGKCGLVPVLAENYKSQQSSDPDPNCVDRPVEGYLAVAVVRRSDTSLTWNSVKGKKSCHTAVDRTAGWNIPMGLLFNQTGSCKFDEYFSQSCAPGSDPRSNLCALCIGDEQGENKCVPNSNERYYGYTGAFRCLAENAGDVAFVKDVTVLQNTDGNNNEAWAKDLKLADFALLCLDGKRKPVTEARSCHLAMAPNHAVVSRMDKVERLKQVLLHQQAKFGRNGSDCPDKFCLFQSETKNLLFNDNTECLARLHGKTTYEKYLGPQYVAGITNLKKCSTSPLLEACEFLRK	0.000965
lactoferrin-glycyrrhizin conjugate Lf-GL (1:4) (other, glycyrrhizin (oxidised with sodium periodate) coupled to amines of Lf by Schiff-base reaction and reduction with NaBH3CN; ratio Lf:GL 1:4 as printed; modified residues not identified) GRRRSVQWCAVSQPEATKCFQWQRNMRKVRGPPVSCIKRDSPIQCIQAIAENRADAVTLDGGFIYEAGLAPYKLRPVAAEVYGTERQPRTHYYAVAVVKKGGSFQLNELQGLKSCHTGLRRTAGWNVPIGTLRPFLNWTGPPEPIEAAVARFFSASCVPGADKGQFPNLCRLCAGTGENKCAFSSQEPYFSYSGAFKCLRDGAGDVAFIRESTVFEDLSDEAERDEYELLCPDNTRKPVDKFKDCHLARVPSHAVVARSVNGKEDAIWNLLRQAQEKFGKDKSPKFQLFGSPSGQKDLLFKDSAIGFSRVPPRIDSGLYLGSGYFTAIQNLRKSEEEVAARRARVVWCAVGEQELRKCNQWSGLSEGSVTCSSASTTEDCIALVLKGEADAMSLDGGYVYTAGKCGLVPVLAENYKSQQSSDPDPNCVDRPVEGYLAVAVVRRSDTSLTWNSVKGKKSCHTAVDRTAGWNIPMGLLFNQTGSCKFDEYFSQSCAPGSDPRSNLCALCIGDEQGENKCVPNSNERYYGYTGAFRCLAENAGDVAFVKDVTVLQNTDGNNNEAWAKDLKLADFALLCLDGKRKPVTEARSCHLAMAPNHAVVSRMDKVERLKQVLLHQQAKFGRNGSDCPDKFCLFQSETKNLLFNDNTECLARLHGKTTYEKYLGPQYVAGITNLKKCSTSPLLEACEFLRK	0.00158
lactoferrin human (Lf) (natural protein) GRRRSVQWCAVSQPEATKCFQWQRNMRKVRGPPVSCIKRDSPIQCIQAIAENRADAVTLDGGFIYEAGLAPYKLRPVAAEVYGTERQPRTHYYAVAVVKKGGSFQLNELQGLKSCHTGLRRTAGWNVPIGTLRPFLNWTGPPEPIEAAVARFFSASCVPGADKGQFPNLCRLCAGTGENKCAFSSQEPYFSYSGAFKCLRDGAGDVAFIRESTVFEDLSDEAERDEYELLCPDNTRKPVDKFKDCHLARVPSHAVVARSVNGKEDAIWNLLRQAQEKFGKDKSPKFQLFGSPSGQKDLLFKDSAIGFSRVPPRIDSGLYLGSGYFTAIQNLRKSEEEVAARRARVVWCAVGEQELRKCNQWSGLSEGSVTCSSASTTEDCIALVLKGEADAMSLDGGYVYTAGKCGLVPVLAENYKSQQSSDPDPNCVDRPVEGYLAVAVVRRSDTSLTWNSVKGKKSCHTAVDRTAGWNIPMGLLFNQTGSCKFDEYFSQSCAPGSDPRSNLCALCIGDEQGENKCVPNSNERYYGYTGAFRCLAENAGDVAFVKDVTVLQNTDGNNNEAWAKDLKLADFALLCLDGKRKPVTEARSCHLAMAPNHAVVSRMDKVERLKQVLLHQQAKFGRNGSDCPDKFCLFQSETKNLLFNDNTECLARLHGKTTYEKYLGPQYVAGITNLKKCSTSPLLEACEFLRK	0.0134
lactoferrin-glycyrrhizin conjugate Lf-GL (1:10) (other, glycyrrhizin (oxidised with sodium periodate) coupled to amines of Lf by Schiff-base reaction and reduction with NaBH3CN; binding ratio Lf:GL 1:10 (1:9.6 by MALDI-TOF, 86,727.3 Da); modified residues not identified) GRRRSVQWCAVSQPEATKCFQWQRNMRKVRGPPVSCIKRDSPIQCIQAIAENRADAVTLDGGFIYEAGLAPYKLRPVAAEVYGTERQPRTHYYAVAVVKKGGSFQLNELQGLKSCHTGLRRTAGWNVPIGTLRPFLNWTGPPEPIEAAVARFFSASCVPGADKGQFPNLCRLCAGTGENKCAFSSQEPYFSYSGAFKCLRDGAGDVAFIRESTVFEDLSDEAERDEYELLCPDNTRKPVDKFKDCHLARVPSHAVVARSVNGKEDAIWNLLRQAQEKFGKDKSPKFQLFGSPSGQKDLLFKDSAIGFSRVPPRIDSGLYLGSGYFTAIQNLRKSEEEVAARRARVVWCAVGEQELRKCNQWSGLSEGSVTCSSASTTEDCIALVLKGEADAMSLDGGYVYTAGKCGLVPVLAENYKSQQSSDPDPNCVDRPVEGYLAVAVVRRSDTSLTWNSVKGKKSCHTAVDRTAGWNIPMGLLFNQTGSCKFDEYFSQSCAPGSDPRSNLCALCIGDEQGENKCVPNSNERYYGYTGAFRCLAENAGDVAFVKDVTVLQNTDGNNNEAWAKDLKLADFALLCLDGKRKPVTEARSCHLAMAPNHAVVSRMDKVERLKQVLLHQQAKFGRNGSDCPDKFCLFQSETKNLLFNDNTECLARLHGKTTYEKYLGPQYVAGITNLKKCSTSPLLEACEFLRK	0.000311
